Test results from PMC5916898, “Global profiling of protein–DNA and protein–nucleosome binding affinities using quantitative mass spectrometry”.

B1: TEAD (dsDNA)
DNA 1: TCGGGACCCAGGCCTGGAATGTTTCCACC
DNA 2: GGTGGAAACATTCCAGGCCTGGGTCCCGA
B2: CTCF (dsDNA)
DNA 1: TCAGAGTGGCGGCCAGCAGGGGGCGCCCTTGCCAGA
DNA 2: TCTGGCAAGGGCGCCCCCTGCTGGCCGCCACTCTGA

Key:
Experiment in all cases: pulldown; 150 mM NaCl, 50 mM Tris pH 8, 0.25% NP-40, 1 mM TCEP; 4 C, 2 h; 100 ug HeLa nuclear lysate
Details in all cases: protein: extract; label: 5' biotin (strand 1)
NFAT5 = NFAT5 (Homo sapiens, UniProt O94916)
Sequence of NFAT5 (O94916 whole entry): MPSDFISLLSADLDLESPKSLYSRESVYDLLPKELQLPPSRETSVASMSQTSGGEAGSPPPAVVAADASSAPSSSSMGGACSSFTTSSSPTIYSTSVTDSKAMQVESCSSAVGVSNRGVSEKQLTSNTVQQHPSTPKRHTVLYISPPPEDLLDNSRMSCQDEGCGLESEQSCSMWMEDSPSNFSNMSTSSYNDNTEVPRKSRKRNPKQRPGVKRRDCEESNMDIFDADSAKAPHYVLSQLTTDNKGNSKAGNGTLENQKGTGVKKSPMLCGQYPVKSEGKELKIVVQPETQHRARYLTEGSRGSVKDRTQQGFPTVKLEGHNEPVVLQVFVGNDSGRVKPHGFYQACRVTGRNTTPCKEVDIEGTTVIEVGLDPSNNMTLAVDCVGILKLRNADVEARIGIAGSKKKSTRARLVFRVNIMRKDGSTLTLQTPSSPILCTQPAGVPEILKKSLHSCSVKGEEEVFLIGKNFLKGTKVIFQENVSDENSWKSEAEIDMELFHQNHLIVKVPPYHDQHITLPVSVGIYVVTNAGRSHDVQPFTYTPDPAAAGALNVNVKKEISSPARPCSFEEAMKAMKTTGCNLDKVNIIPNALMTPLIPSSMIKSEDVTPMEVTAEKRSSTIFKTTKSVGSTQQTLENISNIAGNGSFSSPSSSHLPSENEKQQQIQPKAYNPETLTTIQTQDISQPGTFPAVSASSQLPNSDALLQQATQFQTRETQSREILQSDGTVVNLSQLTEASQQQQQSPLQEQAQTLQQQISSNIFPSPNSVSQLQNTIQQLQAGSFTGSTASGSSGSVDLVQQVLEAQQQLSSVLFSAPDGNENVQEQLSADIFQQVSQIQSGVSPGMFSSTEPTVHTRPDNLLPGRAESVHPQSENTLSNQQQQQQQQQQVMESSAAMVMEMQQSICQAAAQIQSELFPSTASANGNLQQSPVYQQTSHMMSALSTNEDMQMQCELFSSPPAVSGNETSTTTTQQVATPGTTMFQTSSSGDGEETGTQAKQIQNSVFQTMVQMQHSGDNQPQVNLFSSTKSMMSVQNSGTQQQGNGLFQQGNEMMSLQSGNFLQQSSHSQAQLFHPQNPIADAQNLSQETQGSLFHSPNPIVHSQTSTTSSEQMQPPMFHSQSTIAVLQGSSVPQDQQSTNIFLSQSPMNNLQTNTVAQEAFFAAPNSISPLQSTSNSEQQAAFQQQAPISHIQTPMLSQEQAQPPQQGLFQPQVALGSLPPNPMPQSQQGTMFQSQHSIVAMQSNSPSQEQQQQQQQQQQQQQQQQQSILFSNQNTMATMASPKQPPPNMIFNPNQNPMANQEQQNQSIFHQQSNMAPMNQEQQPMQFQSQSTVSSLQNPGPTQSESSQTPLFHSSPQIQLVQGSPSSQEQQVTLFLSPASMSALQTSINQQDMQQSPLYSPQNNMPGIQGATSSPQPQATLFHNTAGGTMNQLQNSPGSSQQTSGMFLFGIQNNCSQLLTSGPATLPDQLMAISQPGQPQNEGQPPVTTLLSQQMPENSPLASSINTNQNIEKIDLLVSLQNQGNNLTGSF

TEAD4 = TEAD4 (Homo sapiens, UniProt Q15561)
Sequence of TEAD4 (Q15561 whole entry): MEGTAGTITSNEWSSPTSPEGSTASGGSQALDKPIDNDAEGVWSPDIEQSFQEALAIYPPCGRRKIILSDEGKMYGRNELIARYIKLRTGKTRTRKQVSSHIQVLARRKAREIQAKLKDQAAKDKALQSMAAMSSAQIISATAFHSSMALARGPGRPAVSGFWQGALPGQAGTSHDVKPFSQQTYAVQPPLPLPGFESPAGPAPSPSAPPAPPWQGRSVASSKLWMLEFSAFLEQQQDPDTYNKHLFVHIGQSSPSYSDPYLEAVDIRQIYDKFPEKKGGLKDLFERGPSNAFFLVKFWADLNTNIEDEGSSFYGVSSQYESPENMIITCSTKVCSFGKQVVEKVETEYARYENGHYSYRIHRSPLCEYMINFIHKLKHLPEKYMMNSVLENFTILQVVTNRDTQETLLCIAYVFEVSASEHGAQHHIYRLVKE

ZBTB10 = biological target: T1, ZBTB10 (Homo sapiens, UniProt Q96DT7)
T1 sequence: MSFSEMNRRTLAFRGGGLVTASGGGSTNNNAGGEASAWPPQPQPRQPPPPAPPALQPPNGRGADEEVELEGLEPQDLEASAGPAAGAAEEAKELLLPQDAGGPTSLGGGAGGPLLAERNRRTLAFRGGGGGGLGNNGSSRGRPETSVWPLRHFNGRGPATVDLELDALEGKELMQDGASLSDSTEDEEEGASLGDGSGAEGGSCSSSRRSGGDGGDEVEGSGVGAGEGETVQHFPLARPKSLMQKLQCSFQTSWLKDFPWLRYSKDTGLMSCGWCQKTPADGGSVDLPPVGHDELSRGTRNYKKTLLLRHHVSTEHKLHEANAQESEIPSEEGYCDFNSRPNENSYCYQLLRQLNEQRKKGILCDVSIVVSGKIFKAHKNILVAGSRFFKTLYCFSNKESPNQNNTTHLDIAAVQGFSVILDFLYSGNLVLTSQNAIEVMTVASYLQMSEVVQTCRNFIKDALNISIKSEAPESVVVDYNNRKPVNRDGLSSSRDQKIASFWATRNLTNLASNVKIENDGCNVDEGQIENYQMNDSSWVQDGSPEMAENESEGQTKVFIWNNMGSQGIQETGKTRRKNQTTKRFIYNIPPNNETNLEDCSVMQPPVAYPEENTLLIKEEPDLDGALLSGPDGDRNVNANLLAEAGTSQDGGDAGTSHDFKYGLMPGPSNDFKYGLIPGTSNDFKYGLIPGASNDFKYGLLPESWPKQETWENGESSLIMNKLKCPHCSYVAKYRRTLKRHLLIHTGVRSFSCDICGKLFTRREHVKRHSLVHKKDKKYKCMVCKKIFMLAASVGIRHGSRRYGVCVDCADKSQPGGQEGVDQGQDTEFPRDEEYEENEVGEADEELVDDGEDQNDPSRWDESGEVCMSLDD

ZBTB43 = biological target: T2, ZBTB43 (Homo sapiens, UniProt O43298)
T2 sequence: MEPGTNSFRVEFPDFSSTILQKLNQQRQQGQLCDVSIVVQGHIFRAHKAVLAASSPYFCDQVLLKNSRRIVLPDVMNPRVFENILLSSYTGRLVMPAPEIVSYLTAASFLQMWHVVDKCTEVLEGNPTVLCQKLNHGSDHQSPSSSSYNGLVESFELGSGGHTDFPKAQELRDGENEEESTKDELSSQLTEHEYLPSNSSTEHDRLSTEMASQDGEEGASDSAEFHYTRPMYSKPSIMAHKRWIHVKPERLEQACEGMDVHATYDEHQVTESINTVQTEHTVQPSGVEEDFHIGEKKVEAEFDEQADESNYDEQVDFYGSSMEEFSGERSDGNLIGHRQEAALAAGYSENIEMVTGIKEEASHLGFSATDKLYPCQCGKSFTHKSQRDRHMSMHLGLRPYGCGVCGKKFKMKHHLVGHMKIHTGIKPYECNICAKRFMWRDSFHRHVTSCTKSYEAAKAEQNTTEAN

ZNF512B = biological target: T3, ZNF512B (Homo sapiens, UniProt Q96KM6)
T3 sequence: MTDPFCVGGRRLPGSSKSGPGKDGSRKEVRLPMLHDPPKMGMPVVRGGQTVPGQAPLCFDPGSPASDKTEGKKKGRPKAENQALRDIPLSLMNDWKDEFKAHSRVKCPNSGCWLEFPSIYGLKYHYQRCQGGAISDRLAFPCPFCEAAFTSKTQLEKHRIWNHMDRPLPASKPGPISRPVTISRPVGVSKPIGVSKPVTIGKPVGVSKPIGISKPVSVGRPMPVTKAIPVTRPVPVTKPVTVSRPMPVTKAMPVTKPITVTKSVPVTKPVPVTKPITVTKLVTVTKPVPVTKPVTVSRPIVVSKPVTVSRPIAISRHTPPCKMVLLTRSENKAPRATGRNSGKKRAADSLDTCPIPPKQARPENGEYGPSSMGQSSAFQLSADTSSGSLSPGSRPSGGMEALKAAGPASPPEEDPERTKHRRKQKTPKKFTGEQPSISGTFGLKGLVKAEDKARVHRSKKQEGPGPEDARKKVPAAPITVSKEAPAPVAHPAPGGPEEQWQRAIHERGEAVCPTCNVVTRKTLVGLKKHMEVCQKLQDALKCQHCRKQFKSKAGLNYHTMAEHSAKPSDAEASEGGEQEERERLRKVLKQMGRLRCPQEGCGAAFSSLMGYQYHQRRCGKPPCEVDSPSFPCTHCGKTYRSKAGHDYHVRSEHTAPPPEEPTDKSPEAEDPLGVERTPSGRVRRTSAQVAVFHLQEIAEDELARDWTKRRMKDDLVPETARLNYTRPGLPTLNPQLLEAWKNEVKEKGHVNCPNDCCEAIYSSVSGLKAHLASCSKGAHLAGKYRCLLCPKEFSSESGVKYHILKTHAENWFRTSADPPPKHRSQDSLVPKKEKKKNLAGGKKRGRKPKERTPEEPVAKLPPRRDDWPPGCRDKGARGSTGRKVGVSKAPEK

Row | Binder | apparent K (half saturation) (NFAT5) [nM] | apparent K (half saturation) (TEAD4) [nM] | apparent K (half saturation) (ZBTB10) [nM] | apparent K (half saturation) (ZBTB43) [nM] | apparent K (half saturation) (ZNF512B) [nM]
1 | B1 | 94.6 | 15.3 |  |  | 
2 | B2 |  |  | 40.4 | 347 | 353
